Target: DAN-his (Sinobiological) (human) (UniProt P41271)
Experiment: blocking ELISA: coated BMP2, antibody pre-incubated with human DAN-his, anti-his HRP; blocked ligand BMP2; fit value of a flat control curve; unit from the axis Concentration(nM)

DAN-his (Sinobiological) (human), sequence (P41271 17-181 limits assumed): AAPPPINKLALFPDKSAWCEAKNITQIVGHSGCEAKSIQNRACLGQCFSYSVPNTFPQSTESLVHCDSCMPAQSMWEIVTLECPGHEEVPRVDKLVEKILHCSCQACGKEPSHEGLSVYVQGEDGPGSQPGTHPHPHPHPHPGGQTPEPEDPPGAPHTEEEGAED

IC50: 24.7 nM
Substance: IgG1 (antibody)

— patent publication US20240294622A1
